Where two headings read alike, the source gives them in different places.
Tests used:
[1] = biological target: HSP90α (90 kD heat shock protein alpha) (Homo sapiens, UniProt P07900); test: biochemical
HSP90α mutant Y61A = HSP90α mutant Y61A (Homo sapiens, UniProt P07900, Y61A); test: biochemical
[2] = biological target: CDC37 recombinant protein (UniProt Q16543); test: ITC
[3] = biological target: CDC37 recombinant protein (UniProt Q16543); test: ITC; remark: listed apart in the source

CDC37 recombinant protein, sequence (Q16543 whole entry): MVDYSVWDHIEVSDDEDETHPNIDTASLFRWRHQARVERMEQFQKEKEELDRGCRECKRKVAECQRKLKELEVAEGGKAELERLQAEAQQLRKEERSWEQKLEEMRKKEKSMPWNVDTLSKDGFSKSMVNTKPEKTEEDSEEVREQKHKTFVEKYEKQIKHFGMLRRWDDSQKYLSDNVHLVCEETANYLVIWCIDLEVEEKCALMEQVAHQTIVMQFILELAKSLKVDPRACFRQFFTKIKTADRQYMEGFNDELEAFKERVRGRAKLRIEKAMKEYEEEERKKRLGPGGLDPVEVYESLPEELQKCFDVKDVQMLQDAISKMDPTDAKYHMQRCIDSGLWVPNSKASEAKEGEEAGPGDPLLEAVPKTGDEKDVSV

| Compound | Kd [1] [µM] | Kd (HSP90α mutant Y61A) [µM] | Kd [2] [µM] | Kd [3] [µM] |
| --- | --- | --- | --- | --- |
| CC(C)=CC/C=C(\C)[C@H]1CC[C@]2(C)[C@@H]1[C@H](O)C[C@@H]1[C@@]3(C)CC[C@H](O[C@@H]4O[C@H](CO)[C@@H](O)[C@H](O)[C@H]4O[C@@H]4O[C@H](CO)[C@@H](O)[C@H](O)[C@H]4O)C(C)(C)[C@@H]3CC[C@]12C [Rg5, ginsenoside Rg5] | 24.8 ± 1.76 | 232 ± 34 |  |  |
| HSP90α WT recombinant protein from E. coli (from UniProt P07900 1-732) (natural protein) |  |  | 34.4 | 2.68 |
| HSP90α Y61A recombinant protein from E. coli (from UniProt P07900 1-732) (natural protein) |  |  | 8.23 | 7.59 |
